Results from patent publication US20200317768A1 (published 2020).
Where a chain is given by its changes, count along the chain named. Names and notes keep the numbering of the source.

T1: cynomolgus monkey FcγRIIIaS extracellular domain, C-terminal His-tag (cynomolgus monkey, UniProt Q8SPW2 21-206 at identity 1.00))
T1 construct: also called cyno FcγRIIIaS; FcgRIIIaS
T1 chain: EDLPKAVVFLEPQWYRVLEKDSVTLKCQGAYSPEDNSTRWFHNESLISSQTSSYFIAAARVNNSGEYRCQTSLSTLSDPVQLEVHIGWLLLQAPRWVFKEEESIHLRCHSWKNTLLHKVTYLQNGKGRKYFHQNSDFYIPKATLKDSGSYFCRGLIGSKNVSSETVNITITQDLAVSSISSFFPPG

T2: cynomolgus monkey FcγRIIa2 extracellular domain, C-terminal His-tag (cynomolgus monkey)
T2 construct: also called cyno FcγRIIa2; FcgRIIa2
T2 chain: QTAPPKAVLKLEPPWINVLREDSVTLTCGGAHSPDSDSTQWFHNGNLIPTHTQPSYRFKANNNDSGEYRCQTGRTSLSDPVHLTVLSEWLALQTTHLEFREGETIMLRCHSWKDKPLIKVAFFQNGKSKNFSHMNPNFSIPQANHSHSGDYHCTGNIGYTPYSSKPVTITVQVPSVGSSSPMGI

T3: cynomolgus monkey FcγRIIa3 extracellular domain, C-terminal His-tag (cynomolgus monkey)
T3 construct: also called cyno FcγRIIa3; FcgRIIa3
T3 chain: T2 chain with K127I, N130K, H133P, Q142R

T4: cynomolgus monkey FcγRIIa1 extracellular domain, C-terminal His-tag (cynomolgus monkey)
T4 construct: also called cyno FcγRIIa1; FcgRIIa1
T4 chain: T2 chain with T95P, A121T, K127I, S128A, N130K, N135D, Q142R

T5: cynomolgus monkey FcγRIIb extracellular domain, C-terminal His-tag (cynomolgus monkey)
T5 construct: also called cyno FcγRIIb; cynoFcγRIIb
T5 chain: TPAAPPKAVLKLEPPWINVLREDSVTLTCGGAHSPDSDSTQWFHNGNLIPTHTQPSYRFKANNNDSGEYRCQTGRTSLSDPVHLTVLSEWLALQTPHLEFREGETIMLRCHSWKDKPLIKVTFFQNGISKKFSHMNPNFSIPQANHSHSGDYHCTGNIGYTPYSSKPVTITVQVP

T6: cynomolgus monkey FcγRIIa3 extracellular domain, C-terminal His-tag (cynomolgus monkey)
T6 construct: also called cyno FcγRIIa3; cynoFcgRIIa3; not shown: His-tag added to C-terminus
T6 chain: T2 chain with K127I, N130K, H133P, Q142R

T7: human FcγRIIaR extracellular domain, C-terminal His-tag (human, UniProt P12318 34-217)
T7 construct: also called human FcγRIIa (type R); FcgRIIaR; not shown: His-tag added to C-terminus
T7 chain: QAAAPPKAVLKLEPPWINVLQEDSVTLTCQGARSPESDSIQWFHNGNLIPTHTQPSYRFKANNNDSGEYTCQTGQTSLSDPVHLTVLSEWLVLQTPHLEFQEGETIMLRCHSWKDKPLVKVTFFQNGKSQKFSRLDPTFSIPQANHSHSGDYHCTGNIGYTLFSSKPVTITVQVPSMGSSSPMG

T8: cynomolgus monkey FcγRIIb extracellular domain, C-terminal His-tag (cynomolgus monkey)
T8 construct: also called cyno FcγRIIb; cynoFcγRIIb; not shown: His-tag added to C-terminus
T8 chain: T5 chain

T9: cynomolgus monkey FcγRIIa1 extracellular domain, C-terminal His-tag (cynomolgus monkey)
T9 construct: also called cyno FcγRIIa1; cynoFcgRIIa1; not shown: His-tag added to C-terminus
T9 chain: T2 chain with T95P, A121T, K127I, S128A, N130K, N135D, Q142R

T10: cynomolgus monkey FcγRIIa2 extracellular domain, C-terminal His-tag (cynomolgus monkey)
T10 construct: also called cyno FcγRIIa2; cynoFcgRIIa2; not shown: His-tag added to C-terminus
T10 chain: T2 chain

T11: human FcγRIIb extracellular domain, C-terminal His-tag (human, UniProt P31994 43-217)
T11 construct: also called humanFcgRIIb; not shown: His-tag added to C-terminus
T11 sequence: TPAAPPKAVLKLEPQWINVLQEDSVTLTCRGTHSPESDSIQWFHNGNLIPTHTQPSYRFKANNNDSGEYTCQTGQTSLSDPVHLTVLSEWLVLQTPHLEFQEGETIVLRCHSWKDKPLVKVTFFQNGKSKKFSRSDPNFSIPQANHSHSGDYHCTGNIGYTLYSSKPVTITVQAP

T12: human FcγRIIaH extracellular domain, C-terminal His-tag (human, UniProt P12318 34-217)
T12 construct: also called human FcγRIIa (type H); FcgRIIaH; not shown: His-tag added to C-terminus
T12 sequence: T7 chain with R134H

B1: M103205H795-SG174/M103202L889-SK1 (antibody, human IgG1, kappa)
heavy: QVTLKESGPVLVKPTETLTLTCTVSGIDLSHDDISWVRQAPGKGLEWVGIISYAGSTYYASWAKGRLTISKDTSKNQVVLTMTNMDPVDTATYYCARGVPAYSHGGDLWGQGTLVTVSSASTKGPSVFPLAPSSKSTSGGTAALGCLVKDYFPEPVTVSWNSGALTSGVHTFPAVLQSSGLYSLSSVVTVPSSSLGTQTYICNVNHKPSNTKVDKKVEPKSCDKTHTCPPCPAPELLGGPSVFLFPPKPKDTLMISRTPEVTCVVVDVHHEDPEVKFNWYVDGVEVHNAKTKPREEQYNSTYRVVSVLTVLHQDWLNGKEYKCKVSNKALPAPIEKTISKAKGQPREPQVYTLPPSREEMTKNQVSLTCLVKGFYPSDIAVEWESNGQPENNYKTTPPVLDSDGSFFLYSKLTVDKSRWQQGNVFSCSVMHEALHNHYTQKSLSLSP
light: DIVMTQSPATLSLSPGERATLSCTSSQSVYHANWLSWFQQKPGQPPKLLIYWASTLAYGVPSRFSGSGSGTDFTLTISSLQPEDAATYYCAGGYGGGRYAFGQGTKVEIKRTVAAPSVFIFPPSDEQLKSGTASVVCLLNNFYPREAKVQWKVDNALQSGNSQESVTEQDSKDSTYSLSSTLTLSKADYEKHKVYACEVTHQGLSSPVTKSFNRGEC
notes: also called S267H
B2: M103205H795-SG177/M103202L889-SK1 (antibody, human IgG1, kappa)
heavy: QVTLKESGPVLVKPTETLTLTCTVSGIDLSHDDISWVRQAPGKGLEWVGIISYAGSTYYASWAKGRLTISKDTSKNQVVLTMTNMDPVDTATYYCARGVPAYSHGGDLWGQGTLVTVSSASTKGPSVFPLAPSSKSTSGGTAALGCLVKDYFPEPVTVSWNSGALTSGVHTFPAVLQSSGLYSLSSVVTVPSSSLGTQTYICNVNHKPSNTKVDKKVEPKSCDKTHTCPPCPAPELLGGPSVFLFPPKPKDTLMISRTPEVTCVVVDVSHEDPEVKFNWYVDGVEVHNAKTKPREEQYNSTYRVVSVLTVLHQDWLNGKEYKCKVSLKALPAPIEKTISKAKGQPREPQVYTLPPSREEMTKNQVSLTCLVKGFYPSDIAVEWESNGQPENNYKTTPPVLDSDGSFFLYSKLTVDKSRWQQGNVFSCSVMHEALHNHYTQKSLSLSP
light: B1 light
notes: also called N325L
B3: M103205H795-SG176/M103202L889-SK1 (antibody, human IgG1, kappa)
heavy: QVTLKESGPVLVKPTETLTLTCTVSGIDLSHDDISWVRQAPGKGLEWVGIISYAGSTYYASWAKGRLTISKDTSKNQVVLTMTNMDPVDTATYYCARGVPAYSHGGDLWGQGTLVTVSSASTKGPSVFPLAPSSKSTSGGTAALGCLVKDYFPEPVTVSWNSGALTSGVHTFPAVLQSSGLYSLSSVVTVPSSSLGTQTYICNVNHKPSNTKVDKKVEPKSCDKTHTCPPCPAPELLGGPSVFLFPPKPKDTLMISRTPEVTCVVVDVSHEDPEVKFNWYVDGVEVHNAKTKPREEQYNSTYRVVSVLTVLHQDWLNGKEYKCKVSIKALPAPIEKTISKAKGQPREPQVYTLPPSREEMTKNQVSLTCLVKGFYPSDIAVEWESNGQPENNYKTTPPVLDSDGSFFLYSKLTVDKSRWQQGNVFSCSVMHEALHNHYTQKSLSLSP
light: B1 light
notes: also called N325I
B4: M103205H795-SG179/M103202L889-SK1 (antibody, human IgG1, kappa)
heavy: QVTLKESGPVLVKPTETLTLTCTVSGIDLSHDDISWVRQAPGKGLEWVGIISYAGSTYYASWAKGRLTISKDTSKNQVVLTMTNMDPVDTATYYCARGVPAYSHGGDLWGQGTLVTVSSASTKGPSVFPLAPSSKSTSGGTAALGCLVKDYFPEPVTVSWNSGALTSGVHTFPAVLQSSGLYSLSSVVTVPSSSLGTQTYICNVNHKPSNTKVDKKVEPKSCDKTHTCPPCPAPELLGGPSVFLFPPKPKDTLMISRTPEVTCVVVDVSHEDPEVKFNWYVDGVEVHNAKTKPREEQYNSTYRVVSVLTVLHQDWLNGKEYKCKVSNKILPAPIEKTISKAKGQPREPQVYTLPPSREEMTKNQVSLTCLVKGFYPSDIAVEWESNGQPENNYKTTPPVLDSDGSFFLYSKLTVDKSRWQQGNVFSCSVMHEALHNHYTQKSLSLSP
light: B1 light
notes: also called A327I
B5: M103205H795-SG178/M103202L889-SK1 (antibody, human IgG1, kappa)
heavy: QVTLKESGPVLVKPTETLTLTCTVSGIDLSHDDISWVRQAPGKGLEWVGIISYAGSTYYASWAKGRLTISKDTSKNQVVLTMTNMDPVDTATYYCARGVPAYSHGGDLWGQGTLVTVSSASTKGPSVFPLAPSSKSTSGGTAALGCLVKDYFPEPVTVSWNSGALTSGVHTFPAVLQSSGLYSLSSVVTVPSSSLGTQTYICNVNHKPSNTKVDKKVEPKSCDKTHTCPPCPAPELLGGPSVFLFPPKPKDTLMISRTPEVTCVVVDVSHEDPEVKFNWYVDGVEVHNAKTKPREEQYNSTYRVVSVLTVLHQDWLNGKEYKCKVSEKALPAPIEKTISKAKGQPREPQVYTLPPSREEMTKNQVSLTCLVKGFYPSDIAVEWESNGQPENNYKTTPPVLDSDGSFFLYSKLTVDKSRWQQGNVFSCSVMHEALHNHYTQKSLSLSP
light: B1 light
notes: also called N325E
B6: M103205H795-MY535 / M103202L889-SK1 (antibody, human IgG1, kappa)
heavy: QVTLKESGPVLVKPTETLTLTCTVSGIDLSHDDISWVRQAPGKGLEWVGIISYAGSTYYASWAKGRLTISKDTSKNQVVLTMTNMDPVDTATYYCARGVPAYSHGGDLWGQGTLVTVSSASTKGPSVFPLAPSSKSTSGGTAALGCLVKDYFPEPVTVSWNSGALTSGVHTFPAVLQSSGLYSLSSVVTVPSSSLGTQTYICNVNHKPSNTKVDKKVEPKSCDKTHTCPPCPGPEWLTGPSVFLFPPKPKDTLMISRTPEVTCVVVDVSDEDPEVKFNWYVDGVEVHNAKTKPREEQYNSTYRVVSVLTVLHQDWLNGKEYKCKVSNKALPKPIEKTISKAKGQPREPQVYTLPPSREEMTKNQVSLTCLVKGFYPSDIAVEWESNGQPENNYKTTPPVLDSDGSFFLYSKLTVDKSRWQQGNVFSCSVMHEALHNHYTQKSLSLSP
light: B1 light
B7: M103205H795-MY533 / M103202L889-SK1 (antibody, human IgG1, kappa)
heavy: B6 heavy with G233A, S241V, Q297L
light: B1 light
B8: M103205H795-MY534 / M103202L889-SK1 (antibody, human IgG1, kappa)
heavy: B6 heavy with G233A, W236L, S241V, Q297L
light: B1 light

Biological target: T1, cynomolgus monkey FcγRIIIaS …
Experiment: SPR; FcgR bound per captured antibody, normalized to SG1
Description: (§1) The kinetic analysis of interactions between these antibodies and FcγR was carried out using BIACORE® T200 or BIACORE® 4000 (GE Healthcare). HBS-EP+ (GE Healthcare) was used as the running buffer, and the measurement temperature was set to 25° C. A chip produced by immobilizing Protein A. Protein A/G or mouse anti-human IgG kappa light chain (BD Biosciences) onto a Series S Sensor Chip CM4 or CM5 (GE Healthcare) by the amine-coupling method was used. […] After the measurement, the antibody captured on the chip was washed off by allowing reaction with 10 mM glycine-HCl, pH1.5 and 25 mM NaOH so that the chip was regenerated and used repeatedly. The sensorgrams obtained as measurement results were analyzed by the 1:1 Langmuir binding model using the BIACORE® Evaluation Software to calculate the binding rate constant ka (L/mol/s) and dissociation rate constant kd (l/s), and the dissociation constant KD (mol/L) was calculated from these values. […] Regarding such interactions, KD values were calculated using the following 1:1 binding model described in BIACORE® T100 Software Handbook BR1006-48 Edition AE.
(§2) The value of the amount of FcγR binding was obtained by dividing the amount of FcγR bound by the amount of each antibody captured.

amount of FcgR binding (SG1 = 100)	Binder
15 SG1 = 100	B1
21 SG1 = 100	B2
20 SG1 = 100	B3
48 SG1 = 100	B4
36 SG1 = 100	B5

Biological target: T2, cynomolgus monkey FcγRIIa2 …
Experiment: as above
Description: as §1, §2

amount of FcgR binding (SG1 = 100)	Binder
16 SG1 = 100	B1
15 SG1 = 100	B2
15 SG1 = 100	B3
17 SG1 = 100	B4
21 SG1 = 100	B5

Biological target: T3, cynomolgus monkey FcγRIIa3 …
Experiment: as above
Description: as §1, §2

amount of FcgR binding (SG1 = 100)	Binder
20 SG1 = 100	B1
25 SG1 = 100	B2
19 SG1 = 100	B3
28 SG1 = 100	B4
29 SG1 = 100	B5

Biological target: T4, cynomolgus monkey FcγRIIa1 …
Experiment: as above
Description: as §1, §2

amount of FcgR binding (SG1 = 100)	Binder
13 SG1 = 100	B1
15 SG1 = 100	B2
14 SG1 = 100	B3
19 SG1 = 100	B4
22 SG1 = 100	B5

Biological target: T5, cynomolgus monkey FcγRIIb extracellular …
Experiment: as above
Description: as §1, §2

amount of FcgR binding (SG1 = 100)	Binder
11 SG1 = 100	B1
18 SG1 = 100	B2
16 SG1 = 100	B3
19 SG1 = 100	B4
26 SG1 = 100	B5

Biological target: T6, cynomolgus monkey FcγRIIa3 …
Experiment: SPR (BIACORE); KD of SG1 / KD of variant;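 further: relative to parent M103205H795-SG1 carrying the SG1 human heavy chain constant region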
Description: as §1
(§3) The behavior of interacting molecules according to the 1:1 binding model on BIACORE® can be described by Equation 1: Req=C·R max/(KD+C)+RI, wherein, Req is a plot of steady-state binding levels to analyte concentration. C is concentration, RI is bulk refractive index contribution in the sample, and Rmax is analyte binding capacity of the surface. When this equation is rearranged, KD can be expressed as Equation 2: KD=C·Rmax/(Req−RI)−C. KD can be calculated by substituting the values of Rmax, RI, and C into Equation 1 or Equation 2. From the current measurement conditions, RI=0, C=2 μmol/L can be used.

KD fold (SG1 = 1)	Binder
5.7 fold	B6
14.2 fold	B7
14.2 fold	B8

The binders below were run against T13, cynomolgus monkey FcγRIIIaS extracellular domain, C-terminal His-tag (cynomolgus monkey, UniProt A3RFZ7 21-206 (rhesus entry)) (assay: SPR (BIACORE); KD of SG1 / KD of variant;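 further: relative to parent M103205H795-SG1 carrying the SG1 human heavy chain constant region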).
T13 construct: also called cyno FcγRIIIaS; cynoFcγRIIIaS; not shown: His-tag added to C-terminus
Description: as §1, §3

KD fold (SG1 = 1)	Binder
0.17 fold	B6
0.33 fold	B7
0.22 fold	B8

What follows are binders tested against T14, human FcγRIIIaV extracellular domain, C-terminal His-tag (human, UniProt P08637 17-208) (assay: SPR (BIACORE); KD of SG1 / KD of variant;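 further: relative to parent M103205H795-SG1 carrying the SG1 human heavy chain constant region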).
T14 construct: also called FcgRIIIaV; not shown: His-tag added to C-terminus
Description: as §1, §3

T14 sequence (P08637 17-208 F176V): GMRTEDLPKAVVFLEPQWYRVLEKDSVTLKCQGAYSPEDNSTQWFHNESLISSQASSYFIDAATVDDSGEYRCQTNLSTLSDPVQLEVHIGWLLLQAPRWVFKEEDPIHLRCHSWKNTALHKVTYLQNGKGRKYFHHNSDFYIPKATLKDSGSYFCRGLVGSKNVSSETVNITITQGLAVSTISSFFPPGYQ

KD fold (SG1 = 1)	Binder
0.16 fold	B6
0.45 fold	B7
0.19 fold	B8

Biological target: T7, human FcγRIIaR extracellular domain, …
Experiment: SPR (BIACORE); KD of SG1 / KD of variant;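 further: relative to parent M103205H795-SG1 carrying the SG1 human heavy chain constant region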
Description: as §1, §3

KD fold (SG1 = 1)	Binder
1.7 fold	B6
5.5 fold	B7
3.8 fold	B8

Biological target: T8, cynomolgus monkey FcγRIIb extracellular …
Experiment: SPR (BIACORE); KD of SG1 / KD of variant
Description: as §1, §3

KD fold (SG1 = 1)	Binder
4.4 fold	B6
7.2 fold	B7
4.3 fold	B8

Biological target: T9, cynomolgus monkey FcγRIIa1 …
Experiment: SPR (BIACORE); KD of SG1 / KD of variant
Description: as §1, §3

KD fold (SG1 = 1)	Binder
2.1 fold	B6
4 fold	B7
2.5 fold	B8

Biological target: T10, cynomolgus monkey FcγRIIa2 …
Experiment: SPR (BIACORE); KD of SG1 / KD of variant
Description: as §1, §3

KD fold (SG1 = 1)	Binder
3.6 fold	B6
7 fold	B7
3.9 fold	B8

The binders below were run against T11, human FcγRIIb extracellular domain, … (assay: SPR (BIACORE); KD of SG1 / KD of variant).
Description: as §1, §3

KD fold (SG1 = 1)	Binder
2.4 fold	B6
4.5 fold	B7
3.8 fold	B8

Each binder was assayed against T12, human FcγRIIaH extracellular domain, … (assay: SPR (BIACORE); KD of SG1 / KD of variant).
Description: as §1, §3

KD fold (SG1 = 1)	Binder
1.5 fold	B6
3.3 fold	B7
4.1 fold	B8
